Assay results published in patent publication US6747136 (KAROLINA INNOVATIONS, dated 2004).
“And” between values parts separate entries of the source, which are not always exact repeats. Equal entries are not always repeated.

B1: Fab molecule clone A12 (Fab, V domains shown)
VH: EVQLLESGSEVKKPGSSVKVSCRASGGSFRSYNFNWVRQAPGQGLEWMGGIIPMFGTANYAQKFQGRVTITADESTATGYMELSSLRSEDTAVYYCAMPYPKHCSRGSCWGWFDPWGQGTLVTVSS
VL: AELTQSPGTLSLSPGERATLSCRASQSLSSKYLAWYQQKPGQAPRLFIYDASSRATGIPDRFSGSGSGTDFTLSISRLEPEDFAVYYCQQYGTPRTFGQGTKVEIK
B2: Fab molecule clone 1:5 (Fab, V domains shown)
VH: VQLLEQSGAEVRKPGSSVKVSCKASGGTFSGHVITWVRQAPGQGLEWMGESIPIFGSANYAQNYAQKFRDRVSIIADESTSTSFIELSNLRSDDTAVYYCARDPPRYCSAGRCYPGFFQQWGQGTLVTVSS
VL: AELTQSPGTLSLSPGERATLSCRASQSVSSNYLAWYQQRPGQAPRLLIYGASSRATGIPDRFSGSGSGTDFTLTISRLEPEDFAVYYCQLYGNSRWTFGQGTKVEIK
B3: Fab molecule clone 1:11 (Fab, V domains shown)
VH: VQLLEQSGAEVKKPGSSVKVSCKASGGTFSGHVISWVRQAPGQGLEWMGGSISFFGTSNSAQKFQGRVSITADESASTAYMELSSLRSEDTAIYYCAKDPPRFCSGGNCYPGFFQQWGQGTLVTVSS
VL: AELTQSPGTLSLSPGERATLSCGASQSVRSNYLAWYQQKPGQAPRLLIYGVSSRATGIPDRFSGSGSGTDFTLTISRLEPEDFAVYYCQQYGSSPRTFGQGTKLEIK
B4: Fab molecule clone L3 (Fab, V domains shown)
VH: EVQLLESGGGVVQPGRSLRLSCAASGFTFKTYGMHWVRQAPGKGLEWVAGISFDGSNQYYADSVKGRFIVSRDNSRDTVFLQMSSLRLEDTAVYYCATEGSPFGSIKGRYYLENWGQGTLVTVSS
VL: AELTQSPATLSVSPGERASLSCRASQSVGNNLAWYQQKPGQAPRLLIYGGNTRATGTPDRFSGSGSGTEFTLTISSLQSEDFAVYFCQHYSTWPLTFGGGTKVEFK
B5: Fab molecule clone 1:7 (Fab, V domains shown)
VH: VQLLEQSGAEVKKPGSSVKVSCQVFGDTFSRYTIQWLRQAPGQGPEWMGNIIPVYNTPNYAQKFQGRLSITADDSTSTAYMELSSLRSEDTAVYFCARVVIPNAIRHTMGYYFDYWGQGTLVTVSS
VL: AELTQSPATLSLSPGERATLSCRASQSVNKYLAWYQQKPGQAPRLLIYDASNRATGIPARFSGSGSGTDFTLTISNLEPEDFAVYYCQQRSDWVTFGGGTKVEIK
B6: Fab molecule clone A8 (Fab, V domains shown)
VH: EVQLLESGPGLVKPSGTLSLTCTVSGGSIRSSHWWSWVRQPPGKGLEWIGEVFFSGSTIYNPSLNDRVFMSVDKSKDQVSLRLSSVTAADTAVYYCARSPIKMNQGRMMLDAFDIWGQGTLVIVSS
VL: AELTQSPSSLSAFVGDRVTITCRASQSISRNLNWYQQKPGTAPKVLIYAASSLQSGVPSRFSGSGSGTDFTLTITSLQPEDFATYYCQQSYTTPRTFGQGTKVEVK
B7: Fab molecule clone L1 (Fab, V domains shown)
VH: EVQLLESGGGVVQPGRSLRLSCAASGFTFSAYGMHWVRQAPGKGLEWVAGIWFDGSNQYYSDSVKGRFTVSRDNSRNTLFLQMNSLRPEDTAVYYCATEVLFGSIKGRYYLENWGQGTLVTVSS
VL: AELTQSPGTLSLSVGERATLSCRASQNIYSGYLGWYQQKPGQPPRLLIYGASNRATGIPDRFSGSGSGTDFTLTISRLESEDFAVYYCQQYGSPPYTFGQGTKVEIK
notes: also called Ll

How the values were obtained:
[1] = molecular target: T1, recombinant conformational HCV E2 antigen (HCV genotype 1a) (hepatitis C virus, HCV1 (genotype 1a), UniProt P26664 383-715)
[2] = molecular target: T1, recombinant conformational HCV E2 …; test: inhibition ELISA: coated E2 1a, soluble E2 as inhibitor
[3] = molecular target: T1, recombinant conformational HCV E2 …; remark: listed apart in the source
bovine serum albumin [4] = molecular target: T2, bovine serum albumin (bovine, UniProt P02769 25-607); test: ELISA, coated BSA 5 ug/ml
T2 construct: also called BSA

bovine serum albumin [5] = molecular target: T2, bovine serum albumin; test: ELISA, […] (100 ug/ml) […]
[6] = molecular target: recombinant HCV E1/E2 complex antigen (hepatitis C virus, HCV1, UniProt P26664 192-383; P26664 384-746); test: ELISA, […] (100 ug/ml) […]
[7] = molecular target: T1, recombinant conformational HCV E2 …; test: ELISA, […] (100 ug/ml) […]
[8] = molecular target: T3, HCV E2 antigen (HCV genotype 1b) (hepatitis C virus genotype 1b); test: NOB assay: Fab pre-mixed with E2 1b, E2 binding to MOLT-4 cells by flow cytometry; 50% reduction titer, Exp. II
T3 construct: also called E2 1b; E2 antigen of genotype 1b

T2 sequence (P02769 25-607 limits assumed): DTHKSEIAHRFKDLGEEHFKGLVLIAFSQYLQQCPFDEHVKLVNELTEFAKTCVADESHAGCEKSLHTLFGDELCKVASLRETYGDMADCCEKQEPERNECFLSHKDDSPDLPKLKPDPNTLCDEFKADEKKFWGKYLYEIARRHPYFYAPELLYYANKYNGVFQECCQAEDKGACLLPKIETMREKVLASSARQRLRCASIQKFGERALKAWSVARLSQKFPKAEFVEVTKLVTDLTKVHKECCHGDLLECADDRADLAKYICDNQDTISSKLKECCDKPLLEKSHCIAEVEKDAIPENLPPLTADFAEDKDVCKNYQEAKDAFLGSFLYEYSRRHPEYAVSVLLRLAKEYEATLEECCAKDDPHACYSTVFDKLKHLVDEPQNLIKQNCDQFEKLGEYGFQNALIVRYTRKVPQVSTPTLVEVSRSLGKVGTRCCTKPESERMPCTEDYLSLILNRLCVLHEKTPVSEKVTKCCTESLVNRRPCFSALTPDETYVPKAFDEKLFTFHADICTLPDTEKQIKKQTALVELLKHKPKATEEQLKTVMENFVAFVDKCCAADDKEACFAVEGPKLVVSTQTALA
T1 sequence (P26664 383-715): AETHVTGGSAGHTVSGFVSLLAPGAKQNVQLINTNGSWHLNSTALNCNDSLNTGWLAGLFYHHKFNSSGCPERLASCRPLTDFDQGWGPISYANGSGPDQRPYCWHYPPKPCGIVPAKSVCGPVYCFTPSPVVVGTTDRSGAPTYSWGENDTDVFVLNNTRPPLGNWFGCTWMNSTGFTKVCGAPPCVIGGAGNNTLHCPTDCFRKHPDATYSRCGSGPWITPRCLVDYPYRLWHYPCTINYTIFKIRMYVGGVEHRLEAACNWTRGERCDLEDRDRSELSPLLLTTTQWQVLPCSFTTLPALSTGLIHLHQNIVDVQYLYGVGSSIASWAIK
Sequence of recombinant HCV E1/E2 complex antigen (P26664 192-383 limits assumed, chain 1 of 2): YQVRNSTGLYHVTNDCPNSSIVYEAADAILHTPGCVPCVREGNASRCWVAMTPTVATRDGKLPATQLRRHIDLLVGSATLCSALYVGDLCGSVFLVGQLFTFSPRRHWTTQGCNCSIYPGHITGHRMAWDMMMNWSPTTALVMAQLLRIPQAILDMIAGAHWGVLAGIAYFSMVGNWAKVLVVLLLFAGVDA
Sequence of recombinant HCV E1/E2 complex antigen (P26664 384-746 limits assumed, chain 2 of 2): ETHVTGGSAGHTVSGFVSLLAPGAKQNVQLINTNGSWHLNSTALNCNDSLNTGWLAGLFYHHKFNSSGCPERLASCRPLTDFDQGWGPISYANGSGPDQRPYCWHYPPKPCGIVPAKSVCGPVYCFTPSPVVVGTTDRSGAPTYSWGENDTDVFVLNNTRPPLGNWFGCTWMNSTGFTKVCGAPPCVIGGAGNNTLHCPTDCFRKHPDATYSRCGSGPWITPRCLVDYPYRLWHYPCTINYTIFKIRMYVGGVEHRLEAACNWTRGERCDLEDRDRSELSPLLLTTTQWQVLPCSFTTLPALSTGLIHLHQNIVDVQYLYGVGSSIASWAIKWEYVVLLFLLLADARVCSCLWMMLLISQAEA

Binder	Kd [1] [nM]	Ka [2] [M⁻¹]	IC50 [3]	binding result (bovine serum albumin [4])	OD405 nm (ELISA reactivity) (bovine serum albumin [5]) [OD405 nm]	OD405 nm (ELISA reactivity) [6] [OD405 nm]	OD405 nm (ELISA reactivity) [7] [OD405 nm]	IC50 [8] [µg/mL]
B1	~100	~1e+07	0.1 µg/mL	–	–	–	–	–
B2	> 100	< 1e+07	1.5 µg/mL and 2.5 µg/mL	no binding	–	–	–	–
B3	~28	~4e+07	–	–	–	–	–	–
B4	~28	~4e+07	0.02 µg/mL	no binding	0.089	2.46	1.7	–
B5	~6	~2e+08	0.02 µg/mL and 0.01 µg/mL	no binding	0.006	> 3	> 3	–
B6	~6	~2e+08	0.001 µg/mL	–	–	–	–	–
B7	~28	~4e+07	0.02 µg/mL and 0.03 µg/mL	–	–	–	–	0.03
